Source: US20050249746A1
Where “and” joins values, the source holds several entries; their conditions need not be identical. Equal entries are not always repeated.

What was measured:
[1] = biological target: wild-type recombinant lipoprotein P4 (rLP4) of non-typable Haemophilus influenzae (non-typable Haemophilus influenzae) (UniProt P26093); experiment: ELISA on coated wild-type rLP4; week 0 serum
[2] = biological target: wild-type recombinant lipoprotein P4 (rLP4) of non-typable Haemophilus influenzae (non-typable Haemophilus influenzae) (UniProt P26093); experiment: ELISA on coated wild-type rLP4; preimmune serum pool

## pre-immune mouse serum (antibody)
[1]
  Anti-rP4 ELISA titer: 53 titer and 62 titer
  ELISA titer: 53 titer
[2]
  ELISA titer: 82 titer and 65 titer
